Reference: the supplement of paper PMC11246515
± gives the standard deviation of the averaged measurements.

Test: total protein half-life in vivo (active degradation + dilution); higher = more stable protein
[1] = E. coli NCM3722 delta-clpP delta-lon delta-hslV, growth: N-lim chemostat, doubling time 6 h
[2] = E. coli NCM3722 delta-clpP, growth: N-lim chemostat, doubling time 6 h
[3] = E. coli NCM3722 delta-hslV, growth: N-lim chemostat, doubling time 6 h
[4] = E. coli NCM3722 delta-lon, growth: N-lim chemostat, doubling time 6 h
[5] = E. coli NCM3722 delta-smpB, growth: N-lim chemostat, doubling time 6 h
[6] = wild type E. coli NCM3722, growth: C-lim chemostat, doubling time 3 h
[7] = wild type E. coli NCM3722, growth: C-lim chemostat, doubling time 6 h
[8] = wild type E. coli NCM3722, growth: C-lim chemostat, doubling time 12 h
[9] = wild type E. coli NCM3722, growth: N-lim chemostat, doubling time 6 h
[10] = wild type E. coli NCM3722, growth: N-lim chemostat, doubling time 12 h
[11] = wild type E. coli NCM3722, growth: P-lim chemostat, doubling time 6 h
[12] = wild type E. coli NCM3722, growth: P-lim chemostat, doubling time 12 h

Sequence | total protein half-life in vivo [1] | total protein half-life in vivo [2] | total protein half-life in vivo [3] | total protein half-life in vivo [4] | total protein half-life in vivo [5] | total protein half-life in vivo [6] | total protein half-life in vivo [7] | total protein half-life in vivo [8] | total protein half-life in vivo [9] | total protein half-life in vivo [10] | total protein half-life in vivo [11] | total protein half-life in vivo [12]
MADRNLRDLLAPWVPDAPSRALREMTLDSRVAAAGDLFVAVVGHQADGRRYIPQAIAQGVAAIIAEAKDEATDGEIREMHGVPVIYLSQLNERLSALAGRFYHEPSDNLRLVGVTGTNGKTTTTQLLAQWSQLLGEISAVMGTVGNGLLGKVIPTENTTGSAVDVQHELAGLVDQGATFCAMEVSSHGLVQHRVAALKFAASVFTNLSRDHLDYHGDMEHYEAAKWLLYSEHHCGQAIINADDEVGRRWLAKLPDAVAVSMEDHINPNCHGRWLKATEVNYHDSGATIRFSSSWGDGEIESHLMGAFNVSNLLLALATLLALGYPLADLLKTAARLQPVCGRMEVFTAPGKPTVVVDYAHTPDALEKALQAARLHCAGKLWCVFGCGGDRDKGKRPLMGAIAEEFADVAVVTDDNPRTEEPRAIINDILAGMLDAGHAKVMEGRAEAVTCAVMQAKENDVVLVAGKGHEDYQIVGNQRLDYSDRVTVARLLGVIA | 5.09 ± 0.76 h | 3.51 ± 0.15 h | 3.43 ± 0.23 h | 4.497 ± 0.044 h | 3.39 ± 0.23 h | 2.65 ± 0.31 h | 5.8 ± 0.085 h | 9.05 ± 0.4 h | 3.71 ± 0.04 h | 6.39 ± 0.93 h | 5.18 ± 0.14 h | 8.724 ± 0.074 h
MRTRHLVGLISGVLILSVLLPVGLSIWLAHQQVETSFIEELDTYSSRVAIRANKVATQGKDALQELERWQGAACSEAHLMEMRRVSYSYRYIQEVAYIDNNVPQCSSLEHESPPDTFPEPGKISKDGYRVWLTSHNDLGIIRYMVAMGTAHYVVMIDPASFIDVIPYSSWQIDAAIIGNAHNVVITSSDEIAQGIITRLQKTPGEHIENNGIIYDILPLPEMNISIITWASTKMLQKGWHRQVFIWLPLGLVIGLLAAMFVLRILRRIQSPHHRLQDAIENRDICVHYQPIVSLANGKIVGAEALARWPQTDGSWLSPDSFIPLAQQTGLSEPLTLLIIRSVFEDMGDWLRQHPQQHISINLESPVLTSEKIPQLLRDMINHYQVNPRQIALELTEREFADPKTSAPIISRYREAGHEIYLDDFGTGYSSLSYLQDLDVDILKIDKSFVDALEYKNVTPHIIEMAKTLKLKMVAEGIETSKQEEWLRQHGVHYGQGWLYSKALPKEDFLRWAEQHL | 6.97 ± 0.34 h |  | 5.64 ± 0.36 h | 5.57 ± 1.2 h | 6.12 ± 0.67 h | 3.21 ± 0.33 h |  |  | 6 ± 0.23 h | 12.2 ± 0.44 h | 6.32 ± 0.94 h | 12.6 ± 0.13 h
MVNLVIVSHSSRLGEGVGELARQMLMSDSCKIAIAAGIDDPQNPIGTDAVKVMEAIESVADADHVLVMMDMGSALLSAETALELLAPEIAAKVRLCAAPLVEGTLAATVSAASGADIDKVIFDAMHALEAKREQLGLPSSDTEISDTCPAYDEEARSLAVVIKNRNGLHVRPASRLVYTLSTFNADMLLEKNGKCVTPESINQIALLQVRYNDTLRLIAKGPEAEEALIAFRQLAEDNFGETEEVAPPTLRPVPPVSGKAFYYQPVLCTVQAKSTLTVEEEQDRLRQAIDFTLLDLMTLTAKAEASGLDDIAAIFSGHHTLLDDPELLAAASELLQHEHCTAEYAWQQVLKELSQQYQQLDDEYLQARYIDVDDLLHRTLVHLTQTKEELPQFNSPTILLAENIYPSTVLQLDPAVVKGICLSAGSPVSHSALIARELGIGWICQQGEKLYAIQPEETLTLDVKTQRFNRQG | 5.07 ± 0.8 h | 5.24 ± 0.96 h | 4.67 ± 0.96 h | 4.07 ± 0.32 h | 3.51 ± 0.52 h | 3.39 ± 0.48 h | 6.02 ± 0.54 h | 10 ± 0.98 h | 4.01 ± 0.29 h | 6.3 ± 0.85 h | 5.33 ± 0.27 h | 11.4 ± 1.5 h
MSDLHNESIFITGGGSGLGLALVERFIEEGAQVATLELSAAKVASLRQRFGEHILAVEGNVTCYADYQRAVDQILTRSGKLDCFIGNAGIWDHNASLVNTPAETLETGFHELFNVNVLGYLLGAKACAPALIASEGSMIFTLSNAAWYPGGGGPLYTASKHAATGLIRQLAYELAPKVRVNGVGPCGMASDLRGPQALGQSETSIMQSLTPEKIAAILPLQFFPQPADFTGPYVMLTSRRNNRALSGVMINADAGLAIRGIRHVAAGLDL [P0CI31] | 6.21 ± 0.63 h |  |  |  |  |  |  |  |  |  | 3.6 ± 0.55 h | 
MNKILLQCDNLCKRYQEGSVQTDVLHNVSFSVGEGEMMAIVGSSGSGKSTLLHLLGGLDTPTSGDVIFNGQPMSKLSSAAKAELRNQKLGFIYQFHHLLPDFTALENVAMPLLIGKKKPAEINSRALEMLKAVGLDHRANHRPSELSGGERQRVAIARALVNNPRLVLADEPTGNLDARNADSIFQLLGELNRLQGTAFLVVTHDLQLAKRMSRQLEMRDGRLTAELSLMGAE | 6.92 h | 6.37 ± 0.67 h |  | 6.32 ± 0.21 h |  | 3.22 h | 6.42 ± 0.012 h | 10.8 ± 0.94 h | 5.78 ± 0.77 h | 13.1 ± 1.3 h | 5.48 ± 0.27 h | 
MPHIDIKCFPRELDEQQKAALAADITDVIIRHLNSKDSSISIALQQIQPESWQAIWDAEIAPQMEALIKKPGYSMNA |  |  |  |  |  |  |  |  |  |  | 2.92 h | 
MVTKKQSRVPGRPRRFAPEQAISAAKVLFHQKGFDAVSVAEVTDYLGINPPSLYAAFGSKAGLFSRVLNEYVGTEAIPLADILRDDRPVGECLVEVLKEAARRYSQNGGCAGCMVLEGIHSHDPQARDIAVQYYHAAETTIYDYIARRHPQRAQCVTDFMSTVMSGLSAKAREGHSIEQLCATAAMAGEAIKTILEE | 4.87 ± 0.78 h | 4.19 ± 0.7 h |  | 5.66 ± 2.6 h | 2.87 ± 0.24 h | 2.66 ± 0.17 h | 4.19 h | 4.59 ± 4.8 h | 3.48 ± 0.37 h | 6.59 ± 0.21 h |  | 6.26 h
